Legend:
[1] = biological target: T1, human CD3 expressed on cells (human, UniProt P07766 23-207; P04234 22-171; P09693 23-182); experiment: flow cytometry, 25 nM
T1 construct: whole, on cells; CD3 complex on Jurkat cells and on human primary T cells
How it was run: (§1)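 Values are fold over isotype: median fluorescence intensity of each antibody relative to isotype control after a 30-minute, 4° C incubation at 25 nM with CD3-bearing cells in PBS containing 2% FBS.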

[2] = biological target: T2, cynomolgus monkey CD3 expressed on primary T cells (cynomolgus monkey, UniProt Q95LI5 22-198; Q95LI8 22-171; Q95LI7 23-181); experiment: flow cytometry, 25 nM, cyno primary T cells
T2 construct: whole, on cells; CD3 complex on purified cynomolgus monkey T cells; also called cyno CD3
How it was run: as §1

T1 sequence (P07766 23-207, chain 1 of 3): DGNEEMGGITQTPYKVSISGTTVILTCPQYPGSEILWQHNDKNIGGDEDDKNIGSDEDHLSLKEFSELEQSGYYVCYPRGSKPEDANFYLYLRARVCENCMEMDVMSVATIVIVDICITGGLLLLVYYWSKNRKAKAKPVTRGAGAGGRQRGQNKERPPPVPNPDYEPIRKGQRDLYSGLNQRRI
T1 sequence (P04234 22-171, chain 2 of 3): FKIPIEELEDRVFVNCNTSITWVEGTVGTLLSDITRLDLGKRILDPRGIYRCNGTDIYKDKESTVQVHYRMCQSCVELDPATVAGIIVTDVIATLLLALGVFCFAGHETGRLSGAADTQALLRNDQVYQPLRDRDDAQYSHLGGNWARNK
T1 sequence (P09693 23-182, chain 3 of 3): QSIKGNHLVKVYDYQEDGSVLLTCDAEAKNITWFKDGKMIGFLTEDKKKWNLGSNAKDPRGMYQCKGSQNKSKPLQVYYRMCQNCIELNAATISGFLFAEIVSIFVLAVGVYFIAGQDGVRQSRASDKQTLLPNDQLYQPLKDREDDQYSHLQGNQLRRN
T2 sequence (Q95LI5 22-198, chain 1 of 3): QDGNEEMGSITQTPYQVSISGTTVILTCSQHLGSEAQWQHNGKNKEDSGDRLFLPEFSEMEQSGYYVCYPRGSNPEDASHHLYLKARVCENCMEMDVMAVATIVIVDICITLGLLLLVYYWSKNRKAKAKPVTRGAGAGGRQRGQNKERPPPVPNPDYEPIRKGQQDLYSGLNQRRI
T2 sequence (Q95LI8 22-171, chain 2 of 3): as the sequence (P04234 22-171, chain 2 of 3) above, with I5V, N15K, I20V, S32T, D33N, I34N, T64A, S74N, V83L, H141R counted along it
T2 sequence (Q95LI7 23-181, chain 3 of 3): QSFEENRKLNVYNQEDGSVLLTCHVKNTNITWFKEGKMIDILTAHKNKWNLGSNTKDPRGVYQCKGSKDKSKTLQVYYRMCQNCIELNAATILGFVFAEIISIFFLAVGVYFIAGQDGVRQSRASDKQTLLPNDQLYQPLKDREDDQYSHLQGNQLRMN

Human primary T Cell Binding (FOI) [1] [FOI]	Jurkat Cell Binding (FOI) [1] [FOI]	binding result [2]	Binder
158	151	no binding (tested: FOI >=10 = positive)	mAb 137 (antibody, V domains shown) VH: QVQLVESGGGVVQPGRSLRLSCAASGFTFSTYGMHWVRQAPGKGLEWVAVIWYDGSHKYYADSVKGRFTISRDNSKKTLYLQMNSLRAEDTGIYYCARTGISGNMSYFYFDHWGQGILVTVSS VL: not shown
86	90.9	no binding (tested: FOI >=10 = positive)	mAb 136 (antibody, V domains shown) VH: QVQLVESGGGVVQPGRSLRLSCAASGFTFSIYGMHWVRQAPGKGLEWVAVIWHDGSNKYYADSVKGRFTISRDNSKNTLYLQMNSLRAEDTAVYYCARTGITGTKAYFYFDYWGQGTLVTVSS VL: not shown
59.6	65.5	no binding (tested: FOI >=10 = positive)	mAb 142 (antibody, V domains shown) VH: QVQLVESGGGVVQPGRSLRLSCAASGFTFSSYGMHWVRQAPGKGLEWVAVIWYDGSNKYYADSVKGRFTISRDNSKNTLYLQMNSLRAEDTAVYYCARTGITGTTAYFYFDSWGQGTLVTVSS VL: not shown
264	173	no binding (tested: FOI >=10 = positive)	mAb 169 (antibody, V domains shown) VH: EVQLVESGGGLVKTGGSLRLSCVASGFSFKKAWMNWVRQAPGKGLEWVGRIKRNTDGGTADYAAPVKGRFTLSRDDSKKTLFLQMNSLKTEDTAVYYCTTLDSSSYYVGYYYMDVWGKGTTVTVSS VL: DIQMTQSPSSVSASVGDRVIITCRASQDINNWLAWYQQKPGKAPKLLIYTASSLQSGVPSRFSGSGSGTDFILTIGSLQPEDFATYYCQQAHSLPITFGQGTRLEIK
172	155	no binding (tested: FOI >=10 = positive)	mAb 127 (antibody, V domains shown) VH: EVQLVESGGGLVKTGGSHRLSCVASGFSFKKAWMNWVRQAPGKGLEWVGRIKRNSDGGTTDYAAPVKGRFILSRDDSKNTLYLQMNSLKTEDTAVYYCTTLDSSSWYVGYYYMDVWGKGTTVTVSS VL: DIQMTQSPSSVSASVGDRVTITCRASQDINNWLAWYQQKPGKAPKILIYTASNLQSGVPSRFSGSGSGTDFTLTISTLQPEDFATYFCQQAHGLPITFGQGTRLEIK
165	155	no binding (tested: FOI >=10 = positive)	mAb 130 (antibody, V domains shown) VH: EVQLVESGGGLVKTGGSLRLSCVASGFSFKKAWMNWVRQAPGKGLEWVGRIKRNSDGGATDYAAPVKDRFTLSRDDSKNTLYLQMNSLKTEDTAVYYCTTLDSSSWYVGYYYMDVWGKGTTVTVSS VL: DIHMTQSPSSVSASLGDRVTFTCRASQDINNWLAWYQQRPGKAPKLLIYTASSLQSGVPSRFSGSGSGTDFTLTISSLQPEDFATYYCQQAHSLPITFGQGTRLGIK
169	157	no binding (tested: FOI >=10 = positive)	mAb 129 (antibody, V domains shown) VH: EVQLVESGGDLVKTGGSLRLSCVASGFSFKKAWMNWVRQAPGKGLEWVGRIKRNTDGGATDYAAPVKDRFTLSRDDSKNTLYLQMNSLKTEDTAVYYCTTLDSSSWYVGYYYMDVWGKGTTVTVSS VL: DIHMTQSPSSVSASLGDRVTFTCRASQDINNWLAWYQQKPGKAPRLLIYTASSLQSGVPSRFSGSGSGTDFTLTISSLQPDDFATYYCQQAHSLPITFGQGTRLGIE
101	97.1	no binding (tested: FOI >=10 = positive)	mAb 128 (antibody, V domains shown) VH: EVQLVESGGGLVQPGRSLRLSCAASGFTFDDYTMHWVRQAPGKGLEWVSGISWNSGSIGYADSVKGRFTISRDNAKNSLYLQMNSLRAEDTALYYCAKDSSGYGYYYYYSMDVWGKGTTVTVSS VL: EIVMTQSPATLSVSPGERATLSCRASQSVSSNLAWYQQKPGQAPRLLIYGASTRATGIPARFSGSGSGTEFTLTISSLQSEDFAVYYCQLYYNWPHFGQGTRLAIK
95.4	90.4	no binding (tested: FOI >=10 = positive)	mAb 119 (antibody, V domains shown) VH: EVQLVESGGGLVQPGRSLRLSCAASGFTFDDYTMHWVRQAPGKGLEWVSGISWNSGSIGYADSVKGRFTISRDNAKNSLYLQMNSLRAEDTALYYCSKDSSGYGYYLNYSLDVWGKGTTVTVSS VL: EIVMTQSPATLSVSPGERATLSCRASQSVSNLAWYQQKPGQAPRLLIYGASTRATGIPARFSGSGSGTEFTLTISSLQSEDFAVYYCQQYNNWPHFGQGTRLQIK
171	125	no binding (tested: FOI >=10 = positive)	mAb 159 (antibody, V domains shown) VH: EVQLVESGGGLVQPGRSLRLSCAASGFTFNGYTMHWVRQVPGKGLEWVSGISWNSGSVGYADSVKGRFTISRDNAKNSLFLQMNSLRAEDTALYYCAKDSSGYGHYYYYYMDVWGKGTTVTVSS VL: EIVMTQSPATLSVSPGERATLSCRASQSVRNNLAWYQQKPGQAPRLLIYGASTRATGIPARFSGSGSGTEFTLTISSLQSEDFALYYCQLYNNWPHFGQGTRLEIK
169	115	no binding (tested: FOI >=10 = positive)	mAb 160 (antibody, V domains shown) VH: EVQLVESGGGLVQPGRSLRLSCAVSGFTFNDYTMHWVRQVPGKGLEWVSGISWNSGSIGYADSVKGRFTISRDNAKNSLYLQMNSLRAEDTALYFCAKDSSGYGHYYYYYMDVWGRGTTVTVSS VL: EIVMTQSPATLSVSPGERATLSCRASQSVRKNLAWYQQKPGQAPRLLIYGASTRATGIPARFSGSGSGTEFTLTISSLQSEDFAVYYCQLYNNWPHFGQGTRLEIK
97.6	97	no binding (tested: FOI >=10 = positive)	mAb 126 (antibody, V domains shown) VH: EVQLVESGGGLVQPGRSLRLSCAASGFTFNDYTMHWVRQVPGKGLEWVSGISWNSGSIDYADSVKGRFTISRDNAKNSLYLQMNSLRAEDTALYYCAKDSSGYGYYYYYYMDVWGKGTTVTVSS VL: EIVMTQSPATLSVSPGERATLSCRASQSVSINLAWYQQKPGQAPRLLIYGASTRATGIPARFSGSGSGTEFTLTISSLQSEDFAVYYCQLYHNWPHFGQGTRLEIK
160	111	no binding (tested: FOI >=10 = positive)	mAb 162 (antibody, V domains shown) VH: EVQLVESGGGLVQPGRSLRLSCAASGFTFDNYAMHWVRQAPGKGLEWVSGISWNSGSIGYADSVKGRFTISRDNAKNSLYLELNSLRAEDTALYYCAKDSSGYGYYYNYYMDVWGKGTTVTVSS VL: EIVMTQSPATLSVSPGERATLSCRASQSVRSNLAWYQQKPGQAPRLLIYGASTRATGIPAKFSGSGSGTEFTLTISSLQSEDFAVYYCQYYYNWPHFGQGTRLEIK
84.7	83.8	no binding (tested: FOI >=10 = positive)	mAb 118 (antibody, V domains shown) VH: EVQLVESGGGLVQPGRSLRLSCAASGFTFDDYTMHWVRQAPGKGLEWVSGISWNSGSIGYADSVKGRFTISRDNAKNSLYLQMNSLRAEDTALYYCSKDSSGYGYYLNYSLDVWGKGTTVTVSS VL: not shown

— patent US20230295310A1 (ABCELLERA BIOLOGICS, published 2023)
